Changes are numbered by the printed parent chain. Like-named read-outs stand apart in the source and are kept apart here.
Tests used:
Experiment in all cases: BLI, mAb on anti-human Fc probe, antigen in solution
[1] = molecular target: T1, SARS-CoV-2 receptor binding domain (RBD) (SARS-CoV-2, UniProt P0DTC2 319-591)
[2] = molecular target: T1, SARS-CoV-2 receptor binding domain (RBD); remark: listed apart in the source
[3] = molecular target: T1, SARS-CoV-2 receptor binding domain (RBD); remark: listed apart in the source
[4] = molecular target: T1, SARS-CoV-2 receptor binding domain (RBD); remark: listed apart in the source
[5] = molecular target: T1, SARS-CoV-2 receptor binding domain (RBD); remark: listed apart in the source
[6] = molecular target: T1, SARS-CoV-2 receptor binding domain (RBD); remark: listed apart in the source
[7] = molecular target: T1, SARS-CoV-2 receptor binding domain (RBD); remark: listed apart in the source
[8] = molecular target: T1, SARS-CoV-2 receptor binding domain (RBD); remark: listed apart in the source
[9] = molecular target: T1, SARS-CoV-2 receptor binding domain (RBD); remark: listed apart in the source
[10] = molecular target: T1, SARS-CoV-2 receptor binding domain (RBD); remark: listed apart in the source
[11] = molecular target: T1, SARS-CoV-2 receptor binding domain (RBD); remark: listed apart in the source
[12] = molecular target: T1, SARS-CoV-2 receptor binding domain (RBD); remark: listed apart in the source
[13] = molecular target: T1, SARS-CoV-2 receptor binding domain (RBD); remark: listed apart in the source
[14] = molecular target: T1, SARS-CoV-2 receptor binding domain (RBD); remark: listed apart in the source
[15] = molecular target: T1, SARS-CoV-2 receptor binding domain (RBD); remark: listed apart in the source
[16] = molecular target: T1, SARS-CoV-2 receptor binding domain (RBD); remark: listed apart in the source
[17] = molecular target: T1, SARS-CoV-2 receptor binding domain (RBD); remark: listed apart in the source

B1: CV2-24 (antibody, V domains shown)
VH: EVQLVESGGGLVKPGGSLRLSCAASGFTFSSYSMNWVRQAPGKGLEWVSSISSTSNYIYYADSVKGRFTISRDNAKNSLYLQMNSLRAEDTAVYYCARVSPNYDFWSGYYPDAFDIWGQGTMVTVSS
VL: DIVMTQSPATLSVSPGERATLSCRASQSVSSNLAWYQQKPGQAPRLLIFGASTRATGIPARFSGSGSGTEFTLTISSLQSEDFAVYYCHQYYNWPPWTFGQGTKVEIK
notes: expressed as IgG
Q: Does B1 bind [1]?
A: no binding

B2: CV2-30 (antibody, V domains shown)
VH: QVQLVQSGAEVKKPGSSVKVSCKASGGTFSSYAITWVRQAPGQGLEWMGGIIPIFGTANYAQKFQGRVTITADESTNTAYMELSSLTSEDTAVYYCAKIGDYDSSGYYFDYWAQGTLVTVSS
VL: EIVLTQSPATLSLSPGERATLSCRASQSVSSFLAWYQQKPGQAPRLLIYDASNRATGIPARFSGSGSGTDFTLTISSLEPEDFAVYYCQQRSNWPPSITFGQGTRLEIK
notes: expressed as IgG
Q: Does B2 bind [2]?
A: no binding

B3: CV2-33 (antibody, V domains shown)
VH: QVQLVQSGAEVKKPGSSVKVSCKASGGTFSSYAISWVRQAPGQGLEWMGGIIPIFGTANYAQKFQGRVTITADESTSTAYMELSSLRSEDTAVYYCARISSYDSSGYSMDVWGQGTTVTVSS
VL: B2 VL with F32Y, S97R, I98V, Q102P, R105K, L106V, E107D
notes: expressed as IgG
Q: Does B3 bind [3]?
A: no binding

B4: CV2-35 (antibody, V domains shown)
VH: EVQLVESGGGLVQPGGSLRLSCAASGFTFSNCWMSWVRQAPGKGLEWVANIKQDGSEKYYVDSVKGRFTISRDNAKNSLYLQMNSLRAEDTAVYYCARMGNTAWYFDLWGRGTLVTVSS
VL: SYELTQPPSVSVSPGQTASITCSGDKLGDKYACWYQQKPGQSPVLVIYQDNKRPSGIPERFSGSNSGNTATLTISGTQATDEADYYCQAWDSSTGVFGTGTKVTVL
notes: expressed as IgG
Q: Does B4 bind [4]?
A: no binding

B5: CV2-25 (antibody, V domains shown)
VH: EVQLVQSGAEVKKPGESLRISCKGSGYSFTSYWISWVRQMPGKGLEWMGKIDPSDSYTNYSPSFQGHVTISADKSISTAYLQWSSLKASDTAMYYCARQFGGELLGWFDPWGQGTLVTVSS
VL: DIQMTQSPSSLSASVGDRVTITCRASQGISNYLAWYQQKPGKVPKLLIYAASTLQSGVPSRFSGSGSGTDFTLTISSLQPEDVATYYCQKYNSAPFTFGPGTKVDIK
notes: expressed as IgG
Q: Does B5 bind [5]?
A: no binding

B6: CV2-39 (antibody, V domains shown)
VH: EVQLVESGGGLVQPGGSLRLSCSASGFTFSSYAMHWVRQAPGKGLEYVSGISSNGGSTYYADSVKGRITISRDNSKKTLYLQMSSLRAEDTAVYYCVKSSSRGYYWGQGTLVTVSS
VL: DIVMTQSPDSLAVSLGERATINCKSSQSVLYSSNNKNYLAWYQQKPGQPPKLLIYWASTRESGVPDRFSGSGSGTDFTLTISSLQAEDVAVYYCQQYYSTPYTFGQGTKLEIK
notes: expressed as IgG
Q: Does B6 bind [6]?
A: no binding

B7: CV2-32 (antibody, V domains shown)
VH: EVQLVESGGGLVQPGRSLRLSCTASGFTFGDYAMSWFRQAPGKGLEWVGFIRSKAYGGTTEYAASVKGRFTISRDDSKSIAYLQMNSLKTEDTAVYYCTMVWQQLHDAFDIWGQGTMVTVSS
VL: SYELTQPPSVSVSPGQTARITCSGDALPKQYAYWYQQKPGQAPVLVIYKDSERPSGIPERFSGSSSGTTVTLTISGVQAEDEADYYCQSADSSGTYSWVFGGGTKLTVL
notes: expressed as IgG
Q: Does B7 bind [7]?
A: no binding

B8: CV2-29 (antibody, V domains shown)
VH: QVQLVESGGGVVQPGRSLRLSCAASGFTFSTYAMHWVRQAPGKGLEWVAVISYDGSNKYYADSVKGRFTISRDNSKNTLYLQMNSLRAEDTAVYYCARAYGGSYFYGMDVWGQGTTVTVSS
VL: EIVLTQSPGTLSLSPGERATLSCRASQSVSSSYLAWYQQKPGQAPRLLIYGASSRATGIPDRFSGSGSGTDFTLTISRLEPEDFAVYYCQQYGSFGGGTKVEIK
notes: expressed as IgG
Q: Does B8 bind [8]?
A: no binding

B9: CV2-26 (antibody, V domains shown)
VH: QVQLVESGGGVVQPGRSLRLSCAAAGFIFSSYAMNWVRQAPGKGLEWVAVISYDGSNKYYADSVKGRFTISRDNSKNTLNLQMNSLRAEDTAVYYCARGNGYIIIDYWGQGTLVTVSS
VL: QLVLTQSPSASASLGASVKLTCTLSSGHSSYAIAWHQQQPEKGPRYLMKFNSDGTHSKGDGIPDRFSGSSSGAERSLTISSLQSEDEADYYCQTWGTGGVFGGGTKLTVL
notes: expressed as IgG
Q: Does B9 bind [9]?
A: no binding

B10: CV2-28 (antibody, V domains shown)
VH: QLQLQESGPGLVKPSETLSLTCTVSGGSVSSNAYYWGWIRQPPGKGLEWIGSVNYRGSTYYIPTLKSRITISVNTSKNQFSLKLTSVTAADTAVYYCARRGVALVTITYFDFWGQGALVTVSS
VL: QSVLTQPPSVSGAPGQRVTITCTGSSSNIGSGYDVHWYQQLPGTAPKLLIYGNTNRPSGVPDRFSGSKSGTSASLAITGLQAEDEAHYYCQSYDSSVVFGGGTKLTVL
notes: expressed as IgG
Q: Does B10 bind [10]?
A: no binding

B11: CV2-34 (antibody, V domains shown)
VH: QVQLVESGGGVVQPGRSLRLSCAASRFTFSTYAMHWVRQAPGKGLEWVTVISYDGDNKYYADSVKGRFTISRDNSKNTLYLQMNSLRTEDTAVYYCTRAGSGSYLSYFDYWGQGTLVTVSS
VL: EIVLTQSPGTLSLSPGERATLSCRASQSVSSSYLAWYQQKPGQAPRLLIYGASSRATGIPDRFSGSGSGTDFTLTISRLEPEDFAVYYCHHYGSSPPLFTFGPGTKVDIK
notes: expressed as IgG
Q: Does B11 bind [11]?
A: no binding

B12: CV2-37 (antibody, V domains shown)
VH: QVQLVQSGAEVKKPGASVKVSCRASGYTFTNFGISWVRQAPGLGLEWMGWISTYNGNTNYAQKLQGRVTMTTDTSTSTAYMELRSLRSDDTAVYYCARASGPYLLGLYWGQGTLVTVSS
VL: QSVLTQPPSVSGAPGQRVTISCTGSSSNIGAGYDVHWYQQLPGTAPKLLIYGNSNRPSGVPDRFSGSKSGTSASLAITGLQAEDEADYYCQSYDSSLSDVVFGGGTKLTVL
notes: expressed as IgG
Q: Does B12 bind [12]?
A: no binding

B13: CV2-42 (antibody, V domains shown)
VH: QVQLVQSGAEVKKPGASVKVSCKASGYTFTSYGISWVRQAPGQGLEWMGWISAYNGNTNYAQKLQGRVTMTTDTSTSTAYMELRSLRSDDTAVYYCARDRRGSGWSWDYYYYGMDVWGQGTTVTVSS
VL: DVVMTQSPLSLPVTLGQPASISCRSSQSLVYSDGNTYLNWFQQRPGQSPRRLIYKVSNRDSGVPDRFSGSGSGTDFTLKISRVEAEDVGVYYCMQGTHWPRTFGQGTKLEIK
notes: expressed as IgG
Q: Does B13 bind [13]?
A: no binding

B14: CV2-40 (antibody, V domains shown)
VH: QVQLVESGGGLVKPGGSLRLSCAASGFTFSDYYMSWIRQAPGKGLEWVSYISSRSSYTNYADSVKGRFTISRDNAKNSLYLQMNSLRAEDTAVYYCARGYDSSGYHYSLWGQGTLVTVSS
VL: QSALTQPASVSGSPGQSITISCTGTSSDVGGYNYVSWYQQHPGKAPKLMIYEVSNRPSGVSNRFSGSKSGNTASLTISGLQAEDEADYYCSSYTNSRTLDVVFGGGTKLTVL
notes: expressed as IgG
Q: Does B14 bind [14]?
A: no binding

B15: CV2-27 (antibody, V domains shown)
VH: QLQLQESGPGLVKPSETLSLTCTVSGGSISSSSYYWGWIRQPPGKGLEFIGSIYYSGSTYYNPSLKSRVTISVDTSKNQFSLKLSSVTAADTAVYYCATQEVVLVRPYNYNGMDVWGQGTTVTVSS
VL: QSALTQPASVSGSPGQSITLSCTGTSSDVGGYNYVSWYQQHPGKAPKLMIYEVSNRPSGVSNRFSGSKSGNTASLTISGLQAEDEADYYCSSYTSISTLVFGTGTKVTVL
notes: expressed as IgG
Q: Does B15 bind [15]?
A: no binding

B16: CV2-38 (antibody, V domains shown)
VH: QVQLVQSGAEVKKPGSSVKVSCKASGGTFSSYAISWVRQAPGQGLEWMGGIIPIFGTANYAQKFQGRVTITADESTSTAYMELSSLRSEDTAVYYCASARFITMVRGVINIYYYGMDVWGQGTTVTVSS
VL: B15 VL with L20I, I96S, V100L, T103G, V107L, T108R, V109S, L110C
notes: expressed as IgG
Q: Does B16 bind [16]?
A: no binding

B17: CV9 (antibody, V domains shown)
VH: QLQLQESGPGLVKPSETLSLTCTVSGGSISSSSYYWGWIRQPPGKGLEWIGSIYYSGSTYYNPSLKSRVTISVDTSKNQFSLKLSSVTAADTAVYYCATHIVVVTATPNWYFDLWGRGTLVTVSS
VL: B15 VL with L20I, E52D, L99W, T103G, V107L
notes: expressed as IgG
Q: Does B17 bind [17]?
A: no binding
